B1: LINE1-mini (parent)
chain: GGCAGAGCUCAACACAGCGUGGCAAAGUGGCUGUGGCUAGACUGCC

Variants of: B1
Assay: self-cleavage, relative activity (ratio to wild type); higher = more cleavage; in vitro, sequencing; the parent is a self-cleaving ribozyme

Variant	self-cleavage
GGCAGAGCUCAACAGAGCGUGGCAAAGUGGCUGUGGCUAGACUGCG [C15G C46G]	0.03
GGCAGAGGUCAACACAGCGUGGCAAAGUGGCUGUGGCUAUACUGCC [C8G G40U]	0.09
GGCAGAGCUCAAAACAGCGUGGGAAAGUGGCUGUGGCUAGACUGCC [C13A C23G]	0.13
GGCAGAGGUCAACACAGCGUGGCAAAGUGGCUGUCGCUAGACUGCC [C8G G35C]	0.06
GGCAGAGCUCAACACAACGUGGCAAAGUGGCUGUGGCUAGACUGCC [G17A]	0.19
GGCAGAGCUCAACACAGAGUGGCAAACUGGCUGUGGCUAGACUGCC [C18A G27C]	0.62
GGCAGAGCUCAACACAGCGUGGCAAAAUGGCCGUGGCUAGACUGCC [G27A U32C]	0.15
GGCAGAGCUCAACACAGUGUGGCAAAGUGGCUGUGGCUAGACUGCA [C18U C46A]	0.46
GGCAGCGCUCAACACAGCGUAGCAAAGUGGCUGUGGCUAGACUGCC [A6C G21A]	1.34
GGCCGAUCUCAACACAGCGUGGCAAAGUGGCUGUGGCUAGACUGCC [A4C G7U]	0.21
GGCACAGCUCAACACAGCGUGGCAAAGUGGCUGUGGCCAGACUGCC [G5C U38C]	0.05
GGCAGAGGUCAACACAGCGUGGCAAAGUGGCUGUGGCUACACUGCC [C8G G40C]	0.09
GGCAGAGCUCAACACAUCGUGGCCAAGUGGCUGUGGCUAGACUGCC [G17U A24C]	0.11
GGCAGAGCUCAACCCAGCGUGGCAAAGUGGCUGUGGCUUGACUGCC [A14C A39U]	0.07
GGCAGAGCUCAGCACCGCGUGGCAAAGUGGCUGUGGCUAGACUGCC [A12G A16C]	0.06
GGCAGAGCUCAACACGGCGUGGCAAAGUAGCUGUGGCUAGACUGCC [A16G G29A]	1.23
GGCUGAGCUCAACACAGCGUGGCCAAGUGGCUGUGGCUAGACUGCC [A4U A24C]	0.4
GGCAGAGCUGUACACAGCGUGGCAAAGUGGCUGUGGCUAGACUGCC [C10G A11U]	0.04
GGCAGCGCUCAACACAGCGUGGCAAAGUGGCUGUGGCCAGACUGCC [A6C U38C]	0.21

Variant	self-cleavage
GGCAGAGCUCAACACAGCGUGGCAAAGUGGCUGUGUCUACACUGCC [G36U G40C]	0.09
GGCAGGGCUCAACACAGCGUAGCAAAGUGGCUGUGGCUAGACUGCC [A6G G21A]	0.23
GGCAGAGCUCACCACAGCGUGGCAAAGUGGCUGUGGCUAGACUGAC [A12C C45A]	0.03
GGCAGAGCUCAACACAGCGUGGGAAAGUGGCUGUGGCUGGACUGCC [C23G A39G]	0.09
AGCAGAGCUCAACACAGUGUGGCAAAGUGGCUGUGGCUAGACUGCC [G1A C18U]	0.94
GGCAGAGCUCAACACUGCGUGGCAAAGUGGCUGUGGCUAGACAGCC [A16U U43A]	0.05
GGCAGAGCUCAACACAGCGUGGCGAAGUGGCUGUAGCUAGACUGCC [A24G G35A]	0.12
GGCAGAGCUCAACACCGCGUGGCAAAGUGGCUGUGGCUAGACUACC [A16C G44A]	0.05
AGCAGAGCUCAACACAGCGUGGCAAAGUGGCUCUGGCUAGACUGCC [G1A G33C]	0.05
GGCAGAGCUCUACACAGCGUGGCAAAGUGGCUGUGCCUAGACUGCC [A11U G36C]	0.03
GGCAGAGCUCAACACAGCGUGGCAGAGUAGCUGUGGCUAGACUGCC [A25G G29A]	0.32
GGCAGAGCUCAACACAGCGUGGCAAAGUGGCUGUGGCUAGAACGCC [C42A U43C]	0.09
GGCAGAGCUGAACACAGCGUGGCAAAGUGGCUGUGGCUCGACUGCC [C10G A39C]	0.02
GGCAGAGCUCAAUACAGCGUGGCAAAGUGGCUGGGGCUAGACUGCC [C13U U34G]	0.05
GGCCGAGCUCAACACAGUGUGGCAAAGUGGCUGUGGCUAGACUGCC [A4C C18U]	0.05
UGCAGAGCUCAACACAGCGUGGCAAAGUGUCUGUGGCUAGACUGCC [G1U G30U]	0.59
GGCAGAGAUCAACACAGCGUGGCAAAUUGGCUGUGGCUAGACUGCC [C8A G27U]	0.16
GGCAGAGCUCAAAACAGAGUGGCAAAGUGGCUGUGGCUAGACUGCC [C13A C18A]	0.09
GGCAGAGCUCAACACAGCGUGGCAAACUGGCUGUGGUUAGACUGCC [G27C C37U]	0.04

Variant	self-cleavage
GGCAGAGCUUAACACAGCGUGGCAAAGUGGUUGUGGCUAGACUGCC [C10U C31U]	0.54
GGCAGAGCUCAACACAGCGAGGCAAAGUGGCAGUGGCUAGACUGCC [U20A U32A]	0.06
GGCAGAGCUCAACACAGCGUGGCAAAGUGGCUAUCGCUAGACUGCC [G33A G35C]	0.05
GGCAGAGCUCAACACAGCGUGGCAAGGUGGCUGUGGCUAGAUUGCC [A26G C42U]	0.13
GGCAGAGCUCCACGCAGCGUGGCAAAGUGGCUGUGGCUAGACUGCC [A11C A14G]	0.04
GGCAGAGCUCAACACAGCGUGGCAAUGUGGCUGUGGCUAGACUGCU [A26U C46U]	2.38
GGCAGAGCUCAUCACAGCGUGUCAAAGUGGCUGUGGCUAGACUGCC [A12U G22U]	0.29
GACAGAGCUCAACACAGCGUGGCAAAGUGGCUGUGGCUAGACGGCC [G2A U43G]	0.14
GGCAGAGCUCAACAUAGCGUGGCAAAGUGGCUGUGGCUAGAGUGCC [C15U C42G]	0.09
GGCAGAGCUCAACACAGCGUGGCAAGGUGGCUGUGGCUAGACUGGC [A26G C45G]	0.31
GGCAGAGCUCAACACAGCGUGGCAAAGUGUCUGUGGCUAGACUUCC [G30U G44U]	0.21
GGCAGAGCGAAACACAGCGUGGCAAAGUGGCUGUGGCUAGACUGCC [U9G C10A]	0.03
GGCAGAGCUCAACACAGCGUGGCAAAGUGGAGGUGGCUAGACUGCC [C31A U32G]	0.05
GGAGGAGCUCAACACAGCGUGGCAAAGUGGCUGUGGCUAGACUGCC [C3A A4G]	0.17
GGCAGAGCUCAACACAGUGUGUCAAAGUGGCUGUGGCUAGACUGCC [C18U G22U]	1.21
CGCAGAGCUCAACACAGCGUGGCAAAGUGGCUGUGGCCAGACUGCC [G1C U38C]	0.06
GGCAGAGCUCAACACAGCGUGGCAAAGUUGCUGUGCCUAGACUGCC [G29U G36C]	0.1
GGCGGAGAUCAACACAGCGUGGCAAAGUGGCUGUGGCUAGACUGCC [A4G C8A]	0.32
